Earlier results as cited in PMC8296985, “A Covalent Calmodulin Inhibitor as a Tool to Study Cellular Mechanisms of K-Ras-Driven Stemness” (Frontiers in Cell and Developmental Biology, 2021).

Assays:
[1] = target: Calmodulin N-terminal lobe (Homo sapiens) (UniProt P0DP23)
[2] = target: Calmodulin C-terminal lobe (Homo sapiens) (UniProt P0DP23)
[3] = target: Calmodulin (Homo sapiens) (UniProt P0DP23); assay: fluorescence polarization

| Kd [1] [nM] | Kd [2] [nM] | Kd [3] [nM] | Substance |
| --- | --- | --- | --- |
| 4000 | 500 | – | K-Ras (from UniProt P01116) |
| – | – | 6 | F-PMCA peptide (from UniProt P20020) |
